As a reminder, the Kd is a measure of binding affinity in units of concentration.

Positions count from the first letter of the chain named. Numbers in names are those of the source.

Assay [1] addresses T1, His-tagged soluble mouse FcRn (recombinant, insect cell produced) (mouse, UniProt Q61559 22-290). Nature of the assay: method not stated; acidic pH.
The target of assay [2] is T1, His-tagged soluble mouse FcRn …. In words: method not stated; neutral pH.
Assay [3] concerns the target T2, C-terminus biotinylated monomeric human CD32a^H (FcγRIIa, histidine-131 variant), recombinant (human, UniProt P12318 34-218, limits assumed, C-terminus biotinylated (site-specific)).
T2 construct: Captured on neutravidin (ELISA plates or CM5 chips); Bought reagent; also called CD32a-H131
T2 sequence (looked up): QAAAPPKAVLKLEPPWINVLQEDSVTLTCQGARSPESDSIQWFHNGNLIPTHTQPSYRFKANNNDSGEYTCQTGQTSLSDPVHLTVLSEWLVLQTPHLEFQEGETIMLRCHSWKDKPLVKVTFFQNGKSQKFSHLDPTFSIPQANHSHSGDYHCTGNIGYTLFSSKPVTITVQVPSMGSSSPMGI
Nature of the assay: SPR, estimated steady state KD, monomeric IgG, pH 7.4.

T1 sequence (Q61559 22-290): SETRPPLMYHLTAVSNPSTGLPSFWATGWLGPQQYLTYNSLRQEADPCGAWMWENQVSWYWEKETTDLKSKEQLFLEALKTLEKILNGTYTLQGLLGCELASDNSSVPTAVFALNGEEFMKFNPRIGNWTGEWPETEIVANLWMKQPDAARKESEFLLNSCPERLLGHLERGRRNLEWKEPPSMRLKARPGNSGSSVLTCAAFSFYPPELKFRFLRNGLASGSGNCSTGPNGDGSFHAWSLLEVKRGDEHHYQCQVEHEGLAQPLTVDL

B1: anti-NIP hIgG1-M252Y/S254T/T256E/H433K/N434F (hIgG1^MST/HN) (antibody)
chain: ASTKGPSVFPLAPSSKSTSGGTAALGCLVKDYFPEPVTVSWNSGALTSGVHTFPAVLQSSGLYSLSSVVTVPSSSLGTQTYICNVNHKPSNTKVDKKVEPKSCDKTHTCPPCPAPELLGGPSVFLFPPKPKDTLYITREPEVTCVVVDVSHEDPEVKFNWYVDGVEVHNAKTKPREEQYNSTYRVVSVLTVLHQDWLNGKEYKCKVSNKALPAPIEKTISKAKGQPREPQVYTLPPSRDELTKNQVSLTCLVKGFYPSDIAVEWESNGQPENNYKTTPPVLDSDGSFFLYSKLTVDKSRWQQGNVFSCSVMHEALKFHYTQKSLSLSPGK
B1: the results for the dissociation constant Kd in assay [1], in assay [2] and in assay [3] were 1.2 nM, 7.4 nM and 2800 nM, respectively.

B2: anti-NIP hIgG1-I253A/H310A/H435A (hIgG1^IHH) (antibody)
chain: B1 chain with Y135M, I136A, T137S, E139T, H193A, K316H, F317N, H318A
For the molecule B2, in assay [3], the equilibrium dissociation constant (Kd) is 4800 nM.

Source of the values: patent US20210139582A1 (published 2021).
